Substitutions are numbered along the chain they refer to.
B1: VL18-3L-VL11 DI #3 (other)
chain: ELVLTQQPASVEAAPGGTVTIKCQASQSISSYLAWYQQKPGHPPKLLIYKVSTRASGVSSRFSGSGSGTEFTLTISDLKSADAATYYCQSTYLGGTYVGGAFGGGTELEIKSGGGGSGGGGSGGGGSSGELVMTQQPASVEAAPGGTVTIKCQASQSISSYLAWYQQKPGQPPKLLIYRVSTRASGVSSRFSGSGSGTEFTLTISDLKSADAATYYCQSTYVNRGSVAAFGGGTKVVVKYPYDVPDYA
notes: also called Variant 3
B2: VL18-3L-VL11 DI #1 (other)
chain: B1 chain with T91A, T220A, A229S
notes: Cloned in pET28a; also called Variant 1
B3: VL18-3L-VL11 DI #5 (other)
chain: B1 chain with V51A, R54L, V180A, R183L
notes: also called Variant 5
B4: rat TNF-alpha (ligand)
chain: LRSSSQNSSDKPVAHVVANHQAEEQLEWLSQRANALLANGMDLKDNQLVVPADGLYLIYSQVLFKGQGCPDYVLLTHTVSRFAISYQEKVSLLSAIKSPCPKDTPEGAELKPWYEPMYLGGVFQLEKGDLLSAEVNLPKYLDITESGQVYFGVIAL
B5: VL11-VL18 3L (other)
single chain VL-VL dimer: ELVMTQTPASVEAAVGGTVTIKCQASQSISRYLAWYQQKPGQPPKLLIYRASTLASGVSSRFKGSGSGTEFTLTISDLECADAATYYCQSTYVNRGSVAAFGGGTEVVVKSGGGGSGGGGSGGGGSSGELVLTQTPASVEAAVGGTVTIKCQASQSISSYLAWYQQKPGHPPKLLIYKASTLASGVSSRFKGSGSGTEFTLTISDLECADAATYYCQSTYLGGTYVGGAFGGGTELEIL
notes: Hexahistidine tail and HA tag; also called VL11-3L-VL18; VL11-18 #3L
B6: VL18-3L-VL11 DI3-PEP DI #8 (other)
chain: ELVLTQQPASVEAAPGGTVTIKCQASQSISSYLAWYQQKPGHPPKLLIYKVSTRASGVSSRFSGSGSGTEFTLTISDLKSADAATYYCQSTYLGGTYVGGAFGGGTELEIKSGGGGSGGGGSGGGGSSGELVMTQQPASVEAAPGGTVTIKCQASQSISSYLAWYQQKPGQPPKLLIYRVSTRASGVSSRFSGSGSGTEFTLTISDLKSADAATYYCQSTYVNRGSVAAFGGGTKVVVKSGGGGSGGGGSGGGGSSGDITGAALLEAKDAAINELKQYGISDYYVHLINKADTVEGVNALKDEILSALPYPYDVPDYA
notes: De-immunized dimer DI #3 fused to de-immunized PEP; also called Variant 8
B7: VL18-3L-VL11 DI5-PEP DI #9 (other)
chain: B6 chain with V51A, R54L, V180A, R183L
notes: De-immunized dimer DI #5 fused to de-immunized PEP; also called Variant 9
B8: rat albumin (other)
chain: EAHKSEIAHRFKDLGEQHFKGLVLIAFSQYLQKCPYEEHIKLVQEVTDFAKTCVADENAENCDKSIHTLFGDKLCAIPKLRDNYGELADCCAKQEPERNECFLQHKDDNPNLPPFQRPEAEAMCTSFQENPTSFLGHYLHEVARRHPYFYAPELLYYAEKYNEVLTQCCTESDKAACLTPKLDAVKEKALVAAVRQRMKCSSMQRFGERAFKAWAVARMSQRFPNAEFAEITKLATDVTKINKECCHGDLLECADDRAELAKYMCENQATISSKLQACCDKPVLQKSQCLAEIEHDNIPADLPSIAADFVEDKEVCKNYAEAKDVFLGTFLYEYSRRHPDYSVSLLLRLAKKYEATLEKCCAEGDPPACYGTVLAEFQPLVEEPKNLVKTNCELYEKLGEYGFQNAVLVRYTQKAPQVSTPTLVEAARNLGRVGTKCCTLPEAQRLPCVEDYLSAILNRLCVLHEKTPVSEKVTKCCSGSLVERRPCFSALTVDETYVPKEFKAETFTFHSDICTLPDKEKQIKKQTALAELVKHKPKATEDQLKTVMGDFAQFVDKCCKAADKDNCFATEGPNLVARSKEALA
notes: also called rat serum albumin; albumin from rat sera
B9: VL11-VL11 3L (other)
single chain VL-VL dimer: ELVMTQTPASVEAAVGGTVTIKCQASQSISRYLAWYQQKPGQPPKLLIYRASTLASGVSSRFKGSGSGTEFTLTISDLECADAATYYCQSTYVNRGSVAAFGGGTEVVVKSGGGGSGGGGSGGGGSSGELVMTQTPASVEAAVGGTVTIKCQASQSISRYLAWYQQKPGQPPKLLIYRASTLASGVSSRFKGSGSGTEFTLTISDLECADAATYYCQSTYVNRGSVAAFGGGTEVVVK
notes: Hexahistidine tail and HA tag; also called VL11-3L-VL11; VL11-11 #3L
B10: VL18-VL18 3L (other)
single chain VL-VL dimer: ELVLTQTPASVEAAVGGTVTIKCQASQSISSYLAWYQQKPGHPPKLLIYKASTLASGVSSRFKGSGSGTEFTLTISDLECADAATYYCQSTYLGGTYVGGAFGGGTELEILSGGGGSGGGGSGGGGSSGELVLTQTPASVEAAVGGTVTIKCQASQSISSYLAWYQQKPGHPPKLLIYKASTLASGVSSRFKGSGSGTEFTLTISDLECADAATYYCQSTYLGGTYVGGAFGGGTELEIL
notes: Hexahistidine tail and HA tag; also called VL18-3L-VL18; VL18-18 #3L

Key:
[1] = biological target: B4; test: antigen cross-reactivity, as described in the Examples above
[2] = biological target: T1, human TNF-alpha (human, UniProt P01375 77-233); test: Biacore (SPR)
T1 construct: Immobilised on a CM5 chip or coated on ELISA plates
T1 sequence (P01375 77-233 limits assumed): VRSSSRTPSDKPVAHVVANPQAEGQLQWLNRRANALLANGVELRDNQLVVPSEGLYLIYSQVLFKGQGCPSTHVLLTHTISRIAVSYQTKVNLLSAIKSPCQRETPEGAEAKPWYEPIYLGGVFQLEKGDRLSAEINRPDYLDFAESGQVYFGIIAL

[3] = biological target: T2, VL18-3L-VL11 PEP DI #7; test: antigen cross-reactivity, as described in the Examples above
T2 construct: also called Variant #7

[4] = biological target: T3, BSA (bovine, UniProt P02769); test: ELISA, BSA as negative-control antigen, anti-HA-HRP, OD 405 nm
T3 construct: coated as negative-control antigen; Negative control antigen of the ELISAs; also called bovine serum albumin
T3 sequence (P02769 25-607 limits assumed): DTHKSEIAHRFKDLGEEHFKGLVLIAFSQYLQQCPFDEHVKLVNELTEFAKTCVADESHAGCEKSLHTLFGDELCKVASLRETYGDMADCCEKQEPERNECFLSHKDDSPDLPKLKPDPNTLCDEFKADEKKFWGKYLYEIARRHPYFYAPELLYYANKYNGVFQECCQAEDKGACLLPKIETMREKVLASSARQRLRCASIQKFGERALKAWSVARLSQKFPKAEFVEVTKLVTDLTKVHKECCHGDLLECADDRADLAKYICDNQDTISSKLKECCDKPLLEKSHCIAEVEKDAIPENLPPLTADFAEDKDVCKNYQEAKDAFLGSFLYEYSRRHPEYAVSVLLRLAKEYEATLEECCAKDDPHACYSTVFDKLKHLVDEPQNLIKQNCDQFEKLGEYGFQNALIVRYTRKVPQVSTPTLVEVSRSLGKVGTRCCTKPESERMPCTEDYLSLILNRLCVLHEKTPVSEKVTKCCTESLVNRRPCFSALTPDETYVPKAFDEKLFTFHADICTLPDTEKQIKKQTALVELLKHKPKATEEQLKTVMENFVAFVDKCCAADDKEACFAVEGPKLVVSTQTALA
Procedure: (§1) Relative binding activities of VL monomers and constructed dimers were measured for human and rat TNF-alpha, while BSA was used as a negative control. Briefly, a 384-well ELISA plate was coated with 80 ng of human or rat TNF-alpha and incubated overnight at 4° C. Wells were blocked for one hour at 37° C. with 3% BSA in PBS. Antibody fragments were added to the wells and incubated for 1 h at room temperature. After washing the wells with PBS, anti-HA-HRP mAb (Roche) was used for detection.

[5] = biological target: B4; test: ELISA, rat TNF-alpha coated (80 ng/well), anti-HA-HRP, OD 405 nm, one unstated fragment concentration
Procedure: as §1

[6] = biological target: T1, human TNF-alpha; test: ELISA, human TNF-alpha coated (80 ng/well), anti-HA-HRP, OD 405 nm, one unstated fragment concentration
Procedure: as §1

[7] = biological target: B8; test: Biacore (SPR)
[8] = biological target: T4, human albumin (human, UniProt P02768 25-609); test: Biacore (SPR)
T4 construct: also called human serum albumin; albumin from human sera
T4 sequence (P02768 25-609 limits assumed): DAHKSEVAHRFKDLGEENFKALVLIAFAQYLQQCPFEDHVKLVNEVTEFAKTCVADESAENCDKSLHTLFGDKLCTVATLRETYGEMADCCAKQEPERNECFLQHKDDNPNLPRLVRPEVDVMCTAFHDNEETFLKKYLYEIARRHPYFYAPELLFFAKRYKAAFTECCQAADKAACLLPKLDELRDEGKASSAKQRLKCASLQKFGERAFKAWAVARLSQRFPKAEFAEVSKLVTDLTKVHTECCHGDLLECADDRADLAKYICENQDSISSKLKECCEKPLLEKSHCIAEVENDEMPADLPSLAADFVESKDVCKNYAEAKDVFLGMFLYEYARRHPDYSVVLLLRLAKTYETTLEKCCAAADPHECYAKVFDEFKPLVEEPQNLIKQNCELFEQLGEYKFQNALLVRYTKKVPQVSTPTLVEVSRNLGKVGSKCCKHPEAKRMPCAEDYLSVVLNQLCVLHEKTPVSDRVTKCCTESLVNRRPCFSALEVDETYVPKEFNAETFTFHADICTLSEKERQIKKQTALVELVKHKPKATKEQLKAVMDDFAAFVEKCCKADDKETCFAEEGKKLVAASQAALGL

[9] = biological target: T5, mouse albumin (mouse, UniProt P07724 25-608); test: antigen cross-reactivity, as described in the Examples above
T5 construct: also called mouse serum albumin; albumin from mouse sera

[10] = biological target: T2, VL18-3L-VL11 PEP DI #7; test: Biacore (SPR)

Binder	binding result [1]	Kd [2] [nM]	binding result [4]	binding result [5]	binding result [6]	other results
B1	binds	0.7	–	–	–	–
B2	binds	–	–	–	–	–
B3	binds	0.8	–	–	–	–
B4	–	–	–	–	–	binding result [3]: binds
B5	–	–	no binding	binds	binds	–
B6	–	0.6	–	–	–	Kd [7]: 22.4 nM; Kd [8]: 88.5 nM
B7	binds	0.4	–	–	–	binding result [9]: binds; Kd [7]: 32 nM; Kd [8]: 92 nM
B8	–	–	–	–	–	Kd [10]: 28.1 nM
B9	–	–	no binding	binds	binds	–
B10	–	–	no binding	binds	binds	–

Reference: patent publication US20150037349A1 (TECHNOPHAGE INVESTIGA O E DESENVOLVIMENTO EM BIOTECNOLOGIA, published 2015)
